Source: US20240423474A1, “SYSTEM AND METHOD FOR INTRAOPERATIVE LIFETIME IMAGING” (The General Hospital Corporation, priority 2021, published 2024)

Assays:
[1] = system: FaDu cells; assay: Confocal FLIM of FaDu cells incubated with imaging probes; type: cell-based; conditions: 100 μg probe, 2 hours incubation
Procedure: Also, a […] 8 FALCON (Leica, Germany) FLIM system was used for NIR FLIM of 10-μm thin tissue sections (murine tumors and clinical specimens). Imaging was performed using 730 nm excitation with 750 nm notch filter and detected with a HyD R detector operating within 770-850 nm range. A 10×, 0.4 NA objective was used for image collection and digital images with 512×512 pixels (2.275 μm/pixel), 4 line repetitions and 4 line averages were obtained. TD data was collected using time-correlated single photon counting.
For in vitro experiments, FaDu cells were plated at 0.2×10^6 cells per well in a 12-well plate containing poly-D-lysine coated glass coverslips and were allowed to adhere to the coverslips for 24 hours. […] After probe incubation, cells were fixed in 4% para-formaldehyde (PFA) and mounted with ProLong Gold Antifade medium (ThermoFisher Scientific, Waltham, Massachusetts, United States) for confocal FLIM.
For the FLIM and IHC image analysis, the FALCON/FLIM software was used to collect and analyze the FLIM data. Lifetime values at each pixel location was calculated by using a single exponential fitting of the fluorescence decay curves. […] IHC image ROIs were analyzed by color deconvolution using the IHC Tool Box in ImageJ (NIH, Version 1.48u) to extract EGFR positive pixels within each ROI. […] Corresponding FLIM image ROIs were analyzed by averaging FLT values above 0.3 ns. […]

[2] = Widefield FLT of probes in culture media and stock solution in PBS; type: physicochemical
From the text: In accordance with one particular and non-limiting study, for widefield time-domain imaging, a system akin that of FIG. 1 was used that included a Supercontinuum laser and tunable filter (EXR-20, SuperK Varia, NKT Photonics, 80 MHz repetition rate; 400-850 nm tuning range) providing 770±30 nm excitation, a multimode fiber (Thorlabs, Newton, New Jersey, United States) delivering light to the sample, and a gated intensified CCD (LaVision, Picostar, 500 V gain, 0.1 to 1 second integration time, 150 ps steps, 256×344 pixels after 4×4 hardware binning). A digital micromirror device was used to expand the output of the optical fiber and delivered to the surface of the animal. The average total power across the illumination area (approximately 6×8-cm) was 10 to 20 mW. Fluorescence was collected in reflectance mode using an 835/70-nm band-pass filter. TD fluorescence imaging was performed with a gate width of 600 ps and 150 ps steps for a total duration of approximately 6 ns per laser duty cycle of 12.5 ns. […] Animals were sacrificed after imaging and tumors were immediately frozen in optimal cutting temperature (OCT) compound for fluorescence lifetime imaging microscopy (FLIM), histology and immunohistochemical (IHC) staining.
For the widefield TD data analysis, TD fluorescence images were analyzed in MATLAB (MathWorks, Natick, Massachusetts, United States) using a custom software. […]

[3] = several recent clinical trials; cited from earlier work

panitumumab-IRDye800CW: conjugate of the FDA approved therapeutic antibody for the epidermal growth factor receptor (EGFR), panitumumab, with IRdye800CW, an NIR dye
probe uptake in cells [1]: higher probe uptake | FLT in culture media ([2]; culture media collected after incubation with cancer cells): 0.58 ns | FLT of stock solution in PBS ([2]; stock solution in PBS): 0.58 ns | safety in humans [3]: safe for human use
